According to the supplement of paper PMC9942255:
Values joined by “and” are separate entries in the source; they are usually repeats but may differ in a detail not shown here. Equal entries are not always repeated.

The sequences below were run on Bacillus subtilis DB104 (SP-AmyQ fusion secretion) (assay: AmyQ secretion efficiency, weighted average sort bin (1 = best secretion, 10 = worst) (bin number (weighted average, 1-10)); higher = lower secretion efficiency).
In short: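 The secretion score was taken as the read-frequency-weighted mean bin number, normalised to beads per bin, with low-abundance sequences excluded. Bins came from large-particle flow cytometry sorting of occupied alginate beads (~65 nL, about 0.3 cells each, with fluorescein-starch) into 10 equally populated groups by green/red fluorescence ratio after about 13 h at room temperature and nile red staining. The cells were a B. subtilis DB104 library with mature AmyQ fused to designed signal peptides, integrated at amyE, and each bin's amplicons were Illumina-sequenced.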

Row | Sequence | AmyQ secretion efficiency
1 | MKQIMIFLTSFMLLARRRRKKALAKDV | 7.64
2 | MFNRLFRYCTLAALIMAFTLPNSVYAQKP | 1.93
3 | MKQGKFSVFLILLLMLTLVVAPKEKAEAAEE | 2.62
4 | MTMLRKIIGWILLLCIIPLFAFTVIASAKEV | 4.98
5 | MNFKKTVVSALSISALALEEEDEDASAHEI | 6.1
6 | MNKKYFVLIVCIIFTSALFPTFSSCTAAQG | 1.18
7 | MNLRKILLSSALSLGMLFSFAFVSAAPVLATSS | 2.03
8 | MRGKSAVLLSLIMLIAGFLIISFSFQM | 8.29
9 | MKKRLIGFLVLVPALIMSGITLQEANKK | 7.31
10 | MKVLLSALLLLLFAFEPSASKKKL | 6.2
11 | MFNRLFRVCFLAALIMAFTLPNSVYAQPK | 1.86
12 | MMKKLFHSTLIVLLFFSFFGVQPGHAKKQ | 2.96
13 | MKKRLIAPMLLSAASLAFFAMSGSSQAAAY | 4.08
14 | MRMLWRSLALCGLALTLAPCVQAAEP | 1.79
15 | MNLRKILLSSALSLGMLVSAAPVLSTSS | 4.72
16 | MKKAAAVLLSLGLVFGFSYGAGHVHEAKTK | 5.32
17 | MKRIRIPMTLALGAALTIAPLSFASLEEN | 6.43
18 | MKLAKRVSALTPSTTLAITDKAKEL | 7.38
19 | MKKAFLVFLSVVLVTTVFLVKQQESVAQAADD | 4.45
20 | MLKKVILAAFILVGSTLGRKSFSSKASAKHV | 6.14
21 | MRPVFPLILSAVLFLSCFFGARQTEASGSKR | 1.87
22 | MTKKRWKTPYVCVLLISGWLAPAASASAQTT | 1.44
23 | MRKKRVKRCKKKRSLTLGSLLPAGYASAKED | 7.22
24 | MKVLLSALLLLLFARRKSASGKKL | 7.09

Row | Sequence | AmyQ secretion efficiency
25 | MNKLKRLSMLTVMIASVFIFSSHQLAAQY | 4.72
26 | MRMLWRMMISLALCGLALTLAPCAQAAEP | 1.79
27 | MRPVFPLILSAVLFLSCFFGARQTESFASASKR | 4.97
28 | MSKLIMALVILGALGTSYISADSS | 7.07
29 | MKKRLIGFLVLVPALIMSGITLIECNKK | 6.67
30 | MKKCLLFLTTIALILSLSTNCFAKNT | 1.59
31 | MRKKIKVLTMCFLGLILFVPTALADNS | 1.88
32 | MKKVLMAFIICLSLILSVLAAPPSGAKIESV | 5.54
33 | MKSRTIWTIILGALLVCCIAVAYTLTKSQAGASSS | 5.1 and 5.65
34 | MTKKAWFLPLVCVLLISGWLAPAASGSAQTT | 2.23
35 | MKKLRKKKIIGLLTVSIASPSFAAEK | 7.35
36 | MKKLLAAGIIGLLTVSIASPYFAAEK | 6.19
37 | MKKRRLLAAGIIGLLTVSIASPSFAAEK | 2.29 and 2.73
38 | MKRIRIPMTLKKGAALTIAPLSFASAEEN | 7.82
39 | MKNMSCKLVVSVTLFFSFLTIGPLAHQQNS | 5.78
40 | MKKLVLCVSILAVILSGVALTQLS | 5.95 and 6.59 and 6.66
41 | MKRIRIPMTLALGAALTIAPLVLTVFAALSSFASAEEN | 6.39
42 | MKKVILAAFILVGSTLGAFSFSSDASAKHV | 2.08
43 | MKKWMITIAMLILAGIALFVFISPWKSHKT | 6.16
44 | MKKKLAAGLTASAIVGTTLVVTPAELATI | 5.54
45 | MLKRTSFVSSGKYTTAVLLSILLPSGQAHAQSA | 2.65
46 | MNFKKTVVSALSISALALVSVSGVASAHEI | 3.04
47 | MKKRLIGFLVLVPALIKSGITLIEANKK | 6.34
48 | MLKKKWMVGLLAGCLAAGGFSYNAFATPR | 3.48

Row | Sequence | AmyQ secretion efficiency
49 | MRRYRKVLTMCFLGLILFVPTALADNS | 1.79
50 | MKKWSTTIAMLILAGIALFVFISPLKSHKT | 5.92
51 | MFKKHTISLLIIFLLASAVLAKPMEAHTV | 2.67
52 | MKRRRRRFILVLSFLSIIVAYPIQTNASPM | 2.07
53 | MKKWMITIAMLILAGIALFVFIRKLKSHKT | 7.72
54 | MKKRLIGFLVLVPALIMSGITLMEANKK | 7.17
55 | MPYLKRVLLLLVTGLFMSLFAVTATASCQTG | 1.26
56 | MKLWMRKTLVVLFTIVTFGLVSPPAALMQDKP | 2.54
57 | MKKRKRRFLLVSFVLFFALSTGITGVQAAPA | 2.95
58 | MKQIMIFLTSFMLLAMTGQTTLAKDV | 3.1
59 | MLKKKWMVGLLAGCLAAGGFSYNAFMTEN | 6.25
60 | MKRMIVRMTLPLLIVCLAFSDFSASARAASE | 2.61
61 | MKVLLSALLLLLFAFEPSSSGKKL | 6.37
62 | MRMLWRSLALCGLALTLAPCMQAAEP | 1.94
63 | MGSSLAAGLTASAIVGTTLVVTPAEAATI | 4.99
64 | MKSKGSIMACLILFSFTITRKKRKKTISAFSN | 7.38
65 | MRPVFPLILSAVLFLSCFFGARQTEYSASKR | 8.3
66 | MKKVLMAFIICLSLILSVLAAPPSGAKMESV | 4.39
67 | MKVPKTMLLSTAAGLLLSLTATSCSAHYV | 4.58
68 | MKKLLAAGIIGLLTVSIASPSFTAEK | 6.63
69 | MKKRLIAPKLLSAASLAFFAMSGSAQAAAY | 3.27
70 | MKKVLMAFIICLSLILTLTSVIFISVLAAPPSGAKAESV | 2.47
71 | MNFKKTVVSALSISASVSGVASAHEI | 5.11
72 | MLTFLIGAGVAAVILSGWFIADHQTHSQEM | 6.55

Row | Sequence | AmyQ secretion efficiency
73 | MKSKGSIMACLILFSFTITGDPNTETISAFSN | 4.93
74 | MKRLLSTLLIGIMLLTFAPSMFAKQD | 2.35
75 | MRNLTKTSLLLAGLCTAAQMVFVTHASCEES | 4.5
76 | MKKWKQTQQSGIAAAISIFVYVSTGSEK | 7.55
77 | MKVPKTMLLSTAAGLLLSLDEDSVSAHYV | 6.39
78 | MKVCQKSIVRFLVSLIIGTFVISVPFMANAQSK | 2.23
79 | MKLSVKIAGVLTVAAAAMTAKMYATYKGN | 7.14
80 | MKLSVKIAGVLTVAAAAMRKKMYATAKGN | 7.43
81 | MKRMIVRMTLPLLIVCLAFSKKSASARAASE | 7.39
82 | MKKLSVAVAASFMSLSISLPGVQAAEG | 1.57
83 | MKRKLLSSLAISALSLGLLVSAPTAGFAAES | 3.25
84 | MKKTIMSFVAVAALSTTAFGAHASFKEI | 5.37
85 | MRPVFPLILSAVLFLSCFFGARQTEASNSKR | 2.41
86 | MKKKQVMLALTAAAGLGLTALKHKKKKAKAAPL | 6.6
87 | MKKAFILSAAAAVGLFTFGGVQQASCKEL | 2.66
88 | MNLRKILLSSALSLGMLVSAAPQLATSS | 4.11
89 | MNKPTKLFILLALAALMFAAAAGGAGTIHAQQP | 1.87
90 | MTKRYGQTKTYKGTTTTAVLAAVFYLTDEDQAAAV | 6.8
91 | MAIIIAIIAAVIVIAALITFNVRNGSPG | 7.66
92 | MKKRKRRNFKRFIAAFLVLALMISLVPADVLGKST | 3.14
93 | MNRLFMKASLVLFAVVFVFAVKGAPAKAETH | 1.75
94 | MKKRFFGPIILAFILFAGAIVIPS | 5.76
95 | MTKLKMLSMLRRKKASLFIFSSQALAVQY | 6.44
